Experimental data as given in paper PMC2708863 (The Journal of Biological Chemistry, 2009).
Where two headings read alike, the source gives them in different places.

B1: ^3FnIII, third type III domain of human fibronectin (residues 810–900) (domain or fragment)
chain: not shown

What was measured:
Test in all cases: NMR titration
[1] = biological target: T1, ^4–5FnI, human fibronectin residues 183–275 (human, UniProt P02751 183-275)
^4–5FnI (R222A) = ^4–5FnI (R222A) (human, UniProt P02751 183-275, R222A)
[2] = biological target: T1, ^4–5FnI, human fibronectin residues …; remark: listed apart in the source
[3] = biological target: B1

T1 sequence (P02751 183-275): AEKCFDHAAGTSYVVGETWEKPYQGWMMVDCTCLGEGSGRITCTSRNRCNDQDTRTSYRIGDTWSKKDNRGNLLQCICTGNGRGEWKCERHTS
Chain of ^4–5FnI (R222A) (P02751 183-275 R222A): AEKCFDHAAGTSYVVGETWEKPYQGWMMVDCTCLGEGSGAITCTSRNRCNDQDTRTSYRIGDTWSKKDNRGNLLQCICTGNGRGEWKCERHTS

| Kd [1] | fold reduction of affinity against the wild-type interaction (^4–5FnI (R222A)) | Kd [2] | Kd [3] | Binder |
| --- | --- | --- | --- | --- |
| 146 ± 9 µM | > 20 fold | 800 ± 46 µM |  | B1 |
|  |  |  | 820 ± 70 µM | ^2–3FnI, human fibronectin residues 93–182 (domain or fragment, UniProt P02751 93-182, looked up) AEETCFDKYTGNTYRVGDTYERPKDSMIWDCTCIGAGRGRISCTIANRCHEGGQSYKIGDTWRRPHETGGYMLECVCLGNGKGEWTCKPI |
